Measurements: patent publication US20240368263A1 (PROMETHEUS BIOSCIENCES, published 2024)

Legend:
[1] = molecular target: LIGHT/TNFSF14 (R&D Systems, cat. no. 664-LI/CF) (UniProt O43557 74-240); experiment: ELISA, antigen coated at 1 µg/ml, Fab titrated
[2] = molecular target: TRAIL/TNFSF10 (R&D Systems, cat. no. 375-TL/CF) (UniProt P50591 114-281); experiment: ELISA, antigen coated at 1 µg/ml, Fab titrated
[3] = molecular target: T1, Fas/TNFSF6 (R&D Systems, cat. no. 126-FL/CF) (UniProt P48023 134-281); experiment: ELISA, antigen coated at 1 µg/ml, Fab titrated
T1 sequence (looked up): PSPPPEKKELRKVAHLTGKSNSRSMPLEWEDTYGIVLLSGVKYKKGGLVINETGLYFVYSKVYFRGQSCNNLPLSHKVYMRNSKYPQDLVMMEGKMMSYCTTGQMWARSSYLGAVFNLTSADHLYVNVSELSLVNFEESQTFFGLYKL

[4] = molecular target: T2, human TL1A (Fitzgerald, Prod. #30R-AT070) (human, UniProt O95150 72-251, limits assumed, biotinylated with EZ-Link Sulfo-NHS-LC-Biotin where used as soluble antigen); experiment: capture lift hit at 15 pM b-TL1A, unmutated sequence
T2 construct: also called TNFSF15; biotinylated human TL1A
T2 sequence (looked up): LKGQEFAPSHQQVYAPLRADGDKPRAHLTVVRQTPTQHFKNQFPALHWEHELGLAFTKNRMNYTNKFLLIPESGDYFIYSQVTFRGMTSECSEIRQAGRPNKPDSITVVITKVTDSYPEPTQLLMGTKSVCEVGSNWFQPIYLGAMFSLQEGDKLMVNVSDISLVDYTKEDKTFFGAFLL

[5] = molecular target: T3, membrane-associated human TL1A on transfected HEK293 cells (human, UniProt O95150 1-251); experiment: flow cytometry, HEK293 cells transfected with human TL1A
T3 construct: whole, on cells
T3 sequence (looked up): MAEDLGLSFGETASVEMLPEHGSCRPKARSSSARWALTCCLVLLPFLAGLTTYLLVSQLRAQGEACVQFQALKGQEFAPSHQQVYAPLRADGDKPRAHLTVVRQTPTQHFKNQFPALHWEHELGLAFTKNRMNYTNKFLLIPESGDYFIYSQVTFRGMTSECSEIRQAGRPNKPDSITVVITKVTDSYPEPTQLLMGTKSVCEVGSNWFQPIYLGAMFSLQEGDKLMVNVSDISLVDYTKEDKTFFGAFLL
Method: All the Fab variants were tested for binding to membrane-associated human TL1A. For these studies a HEK293 cell line that had been transfected with human TL1A was used. The 293 cells expressing membrane bound human TL1A were maintained in DMEM containing L-glutamine, glucose, sodium pyruvate, and phenol red (ThermoFisher cat #11995-065) plus 10% fetal bovine serum, 1X penicillin-streptomycin (Fisher cat #15140122) and 2 μg/ml puromycin (Gibco cat #A11138-03) in a 37° C. incubator with 5% CO2. Three days prior to the assay, a T-75 flask was seeded with 3×10⁶ cells so that the flask was 90-95% confluent on the day of the assay. The media was aspirated and the cell monolayer was gently washed with 5 ml PBS. Adherent cells were removed by repeatedly pipetting 10 ml ice cold 1% BSA/PBS against the monolayer. The cells were counted and 5×10⁵ were aliquoted for each sample to be analyzed. The cells were collected by centrifuging at 300× g at 4° C. for 5 minutes and the wash was discarded. The cells were resuspended in 100 μl Fab or IgG diluted in 1% BSA/PBS and placed on ice for 30 min. Next, the cells were washed with 1 ml 1% BSA/PBS and collected by centrifuging at 300× g at 4° C. for 5 min. The wash was discarded and 100 μl secondary goat F (ab′) 2 anti-human kappa FITC (Southern Biotech cat #2062-02) or goat F (ab′) 2 anti-human IgG PE (Southern Biotech cat #2043-09) conjugate, diluted 1:200 in BSA/PBS was added. Cells were placed on ice for 30 min. Finally, the cells were washed with 1 ml BSA/PBS, collected by centrifuging at 300× g at 4° C. for 5 min. The wash was removed and the cells were resuspended in 500 μl 1% BSA/PBS. One drop of Sytox AADvanced ReadyFlow Reagent (ThermoFisher cat #R37173) was added per sample and the samples were analyzed on the Attune NXT Flow Cytometer (ThermoFisher).

TRAIL/TNFSF10 (R&D Systems, cat. no. 375-TL/CF), sequence (P50591 114-281 limits assumed): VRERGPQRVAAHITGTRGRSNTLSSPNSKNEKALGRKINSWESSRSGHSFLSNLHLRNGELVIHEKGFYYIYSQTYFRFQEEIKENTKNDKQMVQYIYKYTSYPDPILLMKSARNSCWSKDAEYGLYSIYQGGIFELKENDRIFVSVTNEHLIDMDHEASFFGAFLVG
LIGHT/TNFSF14 (R&D Systems, cat. no. 664-LI/CF), sequence (O43557 74-240 limits assumed): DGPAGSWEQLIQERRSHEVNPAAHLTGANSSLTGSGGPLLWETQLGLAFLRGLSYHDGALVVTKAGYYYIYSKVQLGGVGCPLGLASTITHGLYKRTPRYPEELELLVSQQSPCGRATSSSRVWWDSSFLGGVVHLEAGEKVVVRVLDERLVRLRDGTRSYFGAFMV

B1: Clone L8mod Fab (Fab, V domains shown)
VH: QVQLVQSGAEVKKPGASVKVSCKASGFDIQDTYMHWVRQAPGQGLEWMGRIDPASGHTKYDPKFQGRATITTDTSASTAYLQLSSLRSEDTAVYYCARSGGLPDVWGQGTTVTVSS
VL: EIVLTQSPGTLSLSPGERATLSCRASSSVSYMYWYQQKPGQAPRLLIYATSNLASGIPDRFSGSGSGTDFTLTISRLEPEDFAVYYCQQWSGNPRTFGGGTKLEIK
notes: Fab
[1]
  binding result: no binding
[2]
  binding result: no binding
[3]
  binding result: no binding
[4]
  binding result: binds
[5]
  binding result: binds
